Values of other authors as cited in article PMC4258470.

How the values were obtained:
[1] = molecular target: p53 N-terminal transactivation domain (Homo sapiens) (UniProt P04637)
[2] = molecular target: HPV16 E7 CR1-CR2 (Human papillomavirus type 16) (UniProt P03129)
Sequence of HPV16 E7 CR1-CR2 (Human papillomavirus type 16) (P03129 1-40): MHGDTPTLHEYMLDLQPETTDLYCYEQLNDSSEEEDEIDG

Sequence of pRb (P06400 2-928): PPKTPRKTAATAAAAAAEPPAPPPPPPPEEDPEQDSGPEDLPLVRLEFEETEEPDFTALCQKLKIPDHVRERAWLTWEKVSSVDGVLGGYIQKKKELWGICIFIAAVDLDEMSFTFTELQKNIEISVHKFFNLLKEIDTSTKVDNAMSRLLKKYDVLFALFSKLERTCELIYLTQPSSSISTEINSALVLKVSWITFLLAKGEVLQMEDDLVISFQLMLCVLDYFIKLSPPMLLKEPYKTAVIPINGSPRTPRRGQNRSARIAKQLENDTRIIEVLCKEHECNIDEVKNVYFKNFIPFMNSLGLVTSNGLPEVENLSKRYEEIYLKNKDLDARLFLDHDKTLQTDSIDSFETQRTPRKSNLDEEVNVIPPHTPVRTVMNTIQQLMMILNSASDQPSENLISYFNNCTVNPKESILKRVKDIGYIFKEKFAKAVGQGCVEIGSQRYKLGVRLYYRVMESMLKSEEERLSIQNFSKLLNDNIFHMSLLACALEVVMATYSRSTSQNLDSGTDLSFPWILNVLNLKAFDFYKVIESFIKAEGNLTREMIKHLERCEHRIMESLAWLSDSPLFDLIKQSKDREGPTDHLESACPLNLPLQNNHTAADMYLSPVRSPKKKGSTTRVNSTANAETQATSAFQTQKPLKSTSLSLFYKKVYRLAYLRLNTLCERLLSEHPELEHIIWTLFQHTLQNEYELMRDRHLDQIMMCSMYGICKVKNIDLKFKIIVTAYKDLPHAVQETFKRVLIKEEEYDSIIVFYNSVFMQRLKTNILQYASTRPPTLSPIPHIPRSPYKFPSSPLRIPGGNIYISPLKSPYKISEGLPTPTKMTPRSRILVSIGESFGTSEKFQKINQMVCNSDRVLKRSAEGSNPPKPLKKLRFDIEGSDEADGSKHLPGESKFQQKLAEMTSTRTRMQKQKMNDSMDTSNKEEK
Sequence of CBP TAZ2 (P45481 1766-1847): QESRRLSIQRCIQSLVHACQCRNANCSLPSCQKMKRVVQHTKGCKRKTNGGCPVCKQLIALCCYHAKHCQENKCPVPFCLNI
Sequence of p53 N-terminal transactivation domain (Homo sapiens) (P04637 1-61): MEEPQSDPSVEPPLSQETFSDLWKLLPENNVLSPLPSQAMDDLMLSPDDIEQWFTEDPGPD

Substance	Kd [1] [nM]	Kd [2] [nM]
CBP TAZ2 (from UniProt P45481)	20	–
pRb (from UniProt P06400)	–	2
